Paper PMC12246787

Biological target: FcγRIIIa receptor immobilised on the TSKgel FcR-IIIA-NPR column (UniProt P08637)
Assay: FcγRIIIa affinity chromatography; FcγRIIIa immobilised on a TSKgel FcR-IIIA-NPR column (4.6 x 75 mm); antibody injected (20 µL); 0.05 M sodium citrate, 0.150 M NaCl, 10 min at pH 6.5, then linear gradient to pH 4.5 in 40 min; 0.375 mL/min; 20°C; UV 280 nm; eluting peaks collected and their glycoforms assigned by HILIC-MS

UniProt P08637, sequence (P08637 17-208): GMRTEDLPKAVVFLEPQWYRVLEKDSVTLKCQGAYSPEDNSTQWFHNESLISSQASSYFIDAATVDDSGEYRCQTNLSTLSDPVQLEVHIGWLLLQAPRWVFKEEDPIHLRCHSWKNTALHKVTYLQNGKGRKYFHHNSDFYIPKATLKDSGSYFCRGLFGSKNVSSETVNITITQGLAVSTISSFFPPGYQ

For “commercial rituximab (MabThera) produced in CHO cells (antibody)”, the RT (min) on the FcγRIIIa column, peak #1 (G0F 74%, G1F 25%) was 22.9 min, the RT (min) on the FcγRIIIa column, peak #2 (G0F 43%, G1F 43%, G2F 14%) was 28.2 min and the RT (min) on the FcγRIIIa column, peak #3 (G1F 72%, G2F 28%) was 33.2 min.
Work on “rituximab produced in glycoengineered ΔXF N. benthamiana plants (antibody)” yielded an RT (min) on the FcγRIIIa column, peak #1 (G0 100%) of 30.5 min.
Work on “rituximab produced in wild-type N. benthamiana agroinfiltrated in the presence of the kifunensine mannosidase I inhibitor (antibody)” yielded an RT (min) on the FcγRIIIa column, peak #1 (Man8 14%, Man9 86%) of 24.9 min.
“rituximab produced in wild-type N. benthamiana, G0 glycoform (antibody)” gave an RT (min) on the FcγRIIIa column, peak #1 (G0 100%) of 30.3 min.
